This passage reports Percentage of Positive Cells and Positive Cells results from patent publication US20260250418A1.

Experiment [1] concerns the target human HER3 on CHO-hHER3 cells (human) (UniProt P21860). As to the kind of experiment: flow cytometry, transfected CHO cells.
The target of experiment [2] is dog HER3 on CHO-dHER3 cells (dog). As to the kind of experiment: flow cytometry, transfected CHO cells. Background: Flow cytometry measures light scatter and fluorescence of single cells or particles in a stream.
The target of experiment [3] is monkey (Macaca fascicularis) HER3 on CHO-fasHER3 cells (monkey (Macaca fascicularis)). The experiment in a line: flow cytometry, transfected CHO cells.
In experiment [4] the target is mouse HER3 on CHO-mHER3 cells (mouse) (UniProt Q61526). The experiment in a line: flow cytometry, transfected CHO cells.
Experiment [5] deals with human MET on NIH3T3-hMET cells (human) (UniProt P08581). As to the kind of experiment: flow cytometry, transfected NIH3T3 cells.
For experiment [6], the target named is monkey MET on NIH3T3-fasMET cells (monkey) (UniProt A0M8R7). The experiment in a line: flow cytometry, transfected NIH3T3 cells.
Sequence of monkey MET on NIH3T3-fasMET cells (monkey) (A0M8R7 25-1381 S170N/I621T limits assumed): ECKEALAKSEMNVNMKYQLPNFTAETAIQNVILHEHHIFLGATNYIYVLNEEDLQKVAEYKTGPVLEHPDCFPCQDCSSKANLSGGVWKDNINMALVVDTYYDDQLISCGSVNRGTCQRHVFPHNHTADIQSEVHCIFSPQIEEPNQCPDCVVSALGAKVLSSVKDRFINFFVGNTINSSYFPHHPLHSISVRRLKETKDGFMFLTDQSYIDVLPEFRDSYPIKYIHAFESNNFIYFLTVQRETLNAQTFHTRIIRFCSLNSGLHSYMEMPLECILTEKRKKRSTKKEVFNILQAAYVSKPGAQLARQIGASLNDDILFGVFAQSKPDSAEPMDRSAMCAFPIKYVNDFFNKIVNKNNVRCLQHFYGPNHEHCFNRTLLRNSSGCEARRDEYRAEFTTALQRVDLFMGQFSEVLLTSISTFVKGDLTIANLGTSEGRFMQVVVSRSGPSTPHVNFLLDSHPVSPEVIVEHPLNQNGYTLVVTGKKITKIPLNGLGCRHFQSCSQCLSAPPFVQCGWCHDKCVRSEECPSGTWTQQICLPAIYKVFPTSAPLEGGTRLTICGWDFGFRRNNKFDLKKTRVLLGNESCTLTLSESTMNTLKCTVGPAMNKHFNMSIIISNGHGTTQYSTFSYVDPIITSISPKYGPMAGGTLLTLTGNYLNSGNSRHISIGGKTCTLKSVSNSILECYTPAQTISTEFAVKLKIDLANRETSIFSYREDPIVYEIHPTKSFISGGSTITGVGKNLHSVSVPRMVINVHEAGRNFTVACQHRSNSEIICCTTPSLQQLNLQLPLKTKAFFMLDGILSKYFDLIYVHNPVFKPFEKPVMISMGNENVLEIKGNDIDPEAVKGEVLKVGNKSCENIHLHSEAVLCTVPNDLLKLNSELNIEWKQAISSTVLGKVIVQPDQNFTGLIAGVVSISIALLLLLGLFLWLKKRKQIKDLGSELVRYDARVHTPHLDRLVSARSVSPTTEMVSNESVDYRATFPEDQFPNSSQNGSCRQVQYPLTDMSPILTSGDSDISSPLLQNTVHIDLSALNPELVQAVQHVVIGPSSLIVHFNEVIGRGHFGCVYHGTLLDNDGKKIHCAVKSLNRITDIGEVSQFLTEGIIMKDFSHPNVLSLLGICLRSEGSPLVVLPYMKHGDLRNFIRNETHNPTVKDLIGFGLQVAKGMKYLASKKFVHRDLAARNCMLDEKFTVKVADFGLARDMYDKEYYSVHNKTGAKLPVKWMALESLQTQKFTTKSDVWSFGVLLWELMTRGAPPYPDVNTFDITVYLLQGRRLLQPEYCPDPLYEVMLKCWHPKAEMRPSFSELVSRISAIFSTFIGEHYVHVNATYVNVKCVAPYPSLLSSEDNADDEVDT

Sequence of human MET on NIH3T3-hMET cells (human) (P08581 25-1390 limits assumed): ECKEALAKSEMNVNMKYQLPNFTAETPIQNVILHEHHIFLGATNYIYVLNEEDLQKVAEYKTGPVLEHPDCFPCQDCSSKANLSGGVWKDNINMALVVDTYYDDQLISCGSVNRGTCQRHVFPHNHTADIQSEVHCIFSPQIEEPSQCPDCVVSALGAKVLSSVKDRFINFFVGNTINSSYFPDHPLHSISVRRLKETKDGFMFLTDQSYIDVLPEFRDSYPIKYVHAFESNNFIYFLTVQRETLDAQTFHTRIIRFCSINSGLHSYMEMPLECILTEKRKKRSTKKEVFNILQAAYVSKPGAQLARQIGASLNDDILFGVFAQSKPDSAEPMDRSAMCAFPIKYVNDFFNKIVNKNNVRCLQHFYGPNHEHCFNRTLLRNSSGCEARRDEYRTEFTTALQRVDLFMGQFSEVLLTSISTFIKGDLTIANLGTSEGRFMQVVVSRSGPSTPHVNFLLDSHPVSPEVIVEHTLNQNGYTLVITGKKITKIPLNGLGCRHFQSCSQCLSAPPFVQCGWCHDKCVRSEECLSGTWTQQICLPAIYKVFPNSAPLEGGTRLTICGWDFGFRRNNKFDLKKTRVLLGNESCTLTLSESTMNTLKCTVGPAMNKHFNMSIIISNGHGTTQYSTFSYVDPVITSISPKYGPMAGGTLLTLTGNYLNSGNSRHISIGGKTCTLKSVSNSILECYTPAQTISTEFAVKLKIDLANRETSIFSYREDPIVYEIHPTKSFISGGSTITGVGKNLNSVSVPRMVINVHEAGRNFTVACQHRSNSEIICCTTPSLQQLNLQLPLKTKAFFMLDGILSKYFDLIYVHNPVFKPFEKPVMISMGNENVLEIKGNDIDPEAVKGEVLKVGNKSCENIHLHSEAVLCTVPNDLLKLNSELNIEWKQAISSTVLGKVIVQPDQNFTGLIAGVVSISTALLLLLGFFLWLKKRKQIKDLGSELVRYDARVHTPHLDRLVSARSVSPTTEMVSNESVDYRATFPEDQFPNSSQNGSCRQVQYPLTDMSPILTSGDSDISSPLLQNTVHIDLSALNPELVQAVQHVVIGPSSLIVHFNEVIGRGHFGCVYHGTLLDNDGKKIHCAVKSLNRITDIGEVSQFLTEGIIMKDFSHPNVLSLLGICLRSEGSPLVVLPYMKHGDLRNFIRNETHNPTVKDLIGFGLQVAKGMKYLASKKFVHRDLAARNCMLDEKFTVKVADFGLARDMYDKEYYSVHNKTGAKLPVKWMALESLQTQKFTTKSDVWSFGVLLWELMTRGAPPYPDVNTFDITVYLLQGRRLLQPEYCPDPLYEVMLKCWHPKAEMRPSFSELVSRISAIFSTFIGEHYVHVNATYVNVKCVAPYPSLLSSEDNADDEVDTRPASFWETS
Sequence of mouse HER3 on CHO-mHER3 cells (mouse) (Q61526 20-641): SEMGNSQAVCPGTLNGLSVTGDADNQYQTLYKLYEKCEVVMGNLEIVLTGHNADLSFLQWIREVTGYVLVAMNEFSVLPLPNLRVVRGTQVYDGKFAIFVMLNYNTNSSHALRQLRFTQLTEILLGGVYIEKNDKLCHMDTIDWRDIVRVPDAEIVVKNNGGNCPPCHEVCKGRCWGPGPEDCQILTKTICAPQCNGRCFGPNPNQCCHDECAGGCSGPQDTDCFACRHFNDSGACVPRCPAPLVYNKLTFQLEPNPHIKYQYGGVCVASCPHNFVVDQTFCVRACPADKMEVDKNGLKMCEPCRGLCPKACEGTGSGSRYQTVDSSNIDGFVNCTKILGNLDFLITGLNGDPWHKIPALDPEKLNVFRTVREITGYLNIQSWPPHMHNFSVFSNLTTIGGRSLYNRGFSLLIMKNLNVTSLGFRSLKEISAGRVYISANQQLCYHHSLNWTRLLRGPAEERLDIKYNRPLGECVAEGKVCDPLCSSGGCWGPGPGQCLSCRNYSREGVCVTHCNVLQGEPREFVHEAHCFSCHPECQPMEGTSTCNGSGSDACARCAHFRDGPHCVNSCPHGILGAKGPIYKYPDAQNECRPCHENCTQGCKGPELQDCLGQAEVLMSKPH

In the case of NC, the Percentage of Positive Cells in experiment [1] was 0.4%; in experiment [2], 1%; in experiment [3], 0.2%; in experiment [4] it was 0.2%. The Positive Cells in experiment [1] amounted to 2.1%; in experiment [3] it was 3.2%; in experiment [5], 3.9%; in experiment [6] it was 0.5%.

For NC + secondary antibody, the Percentage of Positive Cells stood at 1.7% in experiment [1], 1.6% in experiment [2], 0.9% in experiment [3] and 0.5% in experiment [4]. The Positive Cells in experiment [1] is 2.8%; in experiment [3], 2.7%; in experiment [5], 2.4%; in experiment [6], 0.6%.
